This is an account of results in the nanobody polyreactivity screen of Harvey et al. (2022).

The data set is described as follows: yeast display, Sf9 membrane polyspecificity reagent, FACS + sequencing; frameworks hold sequencing errors. Put shortly:
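Galactose induction of a Saccharomyces cerevisiae BJ5465 synthetic nanobody display library ran 36–48 hours. The cells were then stained for 1 hour at 4 °C with 10% biotinylated, detergent-solubilized Sf9 membrane reagent, pulled down on streptavidin microbeads and FACS-sorted into low and high (top ~1%) gates on expression and reagent-binding fluorescence. Labels for polyreactivity follow the gate of origin.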
For “QVQLVESGGGLVQAGGSLRLSCAASGSTFDAYAMGWCRQAPGTERELVAAITNAGSTNYADSVKGRFTISRDNAKNTVYLQMNSLKPEDTAVYYCATDWYHRYLDGRYDYWVQGTQVTVSS”, the “polyreactivity (PSR sort gate)” value is recorded as “low polyreactivity”.

“QVHLVESGGGLVQAGGSLRLSCAASGSTFVHYAMGWYRQAPGKERELVADITTGDITNYADSVKGRFTISRDNAKNTVYLQMNSLKQEDTAVYSCNARTRYITSLHQYSLDYWGQGSQVTVSS”: the “polyreactivity (PSR sort gate)” value was “low polyreactivity”.

As for “QDHLVESGGGLVQAGGSLRLSCSASGSNFRSYAMGWYRQAPGKERELVAAITWSGGRTYYADSVKGRFTISRDNAKNTVYLQMNSLKPEDTAVYYCNAVYLAYGGAYWGQGTQVTVSS”, the “polyreactivity (PSR sort gate)” value is “high polyreactivity”.

Take “QVQLVESGGGLVQAGGSLRLSCAASGSTFALNAMGWYRQAPGKERELVADINYIGDSTYYADSVKGRFTISRDNAKNTVYLLMNSLKPEDTAVYYCAAKSIIRPYAPRRDDMDYWGQGTQVTVSS”: the “polyreactivity (PSR sort gate)” value was “low polyreactivity”.

As for “QVQLVESVGGLVQAGGSLLLSCAASGGIFWVYALGWYRQAPGKVRELVAAISYDTTSTYYADSVKGRFTISRDNAKNTVYLQMNRLKPEDTAVYYCNKTTLLTVEYDYGGQGTQVTVSS”, the “polyreactivity (PSR sort gate)” value is listed as “low polyreactivity”.

Regarding “QVQLVESGGGLVQAGGSLRLSCAASGSIFTENAMGWYRQPPGKERELVATITITGSTNYADSVKGRFTISRDNAKKTVYLQMNSLKPADTAVYYCNADLYIAFSASAYDYWGQGTQVTVSS”, the “polyreactivity (PSR sort gate)” value was “low polyreactivity”.

“QVQLVESGGGLVQAGGSLRLSCAASGSIFYYNAMGWFRQAGGKERELVAALSWSGGSTYYADSVKGRYTISRDNATNTVSLQMNSLKPEETAVYYCNAVGWYTYFSGSRKYNSWGQGTQVTVSS”: the “polyreactivity (PSR sort gate)” value was “low polyreactivity”.

Regarding “QVHLVESGGGLVQAGGSLRLSCAASGRIFDYYAMGWYRQAPGKERELVARITSGGTTNYADSVKGRFTISRDNENNTVYLQMNSLKPEYTEVYYCKAHDYSDPLQMDYWGQGTQVTVSS”, the “polyreactivity (PSR sort gate)” value was “low polyreactivity”.

“QVQLVESGGGLVQAGGSLRLSCAASGFIFTYYAMGWYRPEHGKERDLVATINWSDGSTRYADSVKGRFTISRDNAKNTDYLQMNSLKPEDTAVYYCAKDWFNRPSVEMDYWGQGTQVTVSS”: the “polyreactivity (PSR sort gate)” value is recorded as “low polyreactivity”.

Take “QVQLVESGGGLVQAGGSLRLSCAASGTFWWYAMGWYRQAPGKERELVASINRGGSTYYADSVKGRFTISRDNANNTVYLQMNSLKPEDTAVYYCNAGWIGRLTPYRRATYNYWGQGTQVTVSS”: the “polyreactivity (PSR sort gate)” value is listed as “high polyreactivity”.

As for “QVQLVESGGGLVQAGGSLRLSCAASGFTFVDYAMGWYRQAPGKERELVAAISSSGDSTYYADSVKGRFTISRYNAKNTVYLQMNSLKPEDNAVYYCAAEYDREEYSGYDYLGQGTQVTVSS”, the “polyreactivity (PSR sort gate)” value is on record as “low polyreactivity”.

For the sequence “QVKLVESGGGLVQAGGSLRLSCAASGFTFRRYAMGWYRQAPGKERELVAGITSGGSTYYADSVKGRFTISRDNAKNTVYLQMNSLKPEDTAVYYCNTKVISRTSERRGNGFTRYDYWGQGTQVTVSS”, the “polyreactivity (PSR sort gate)” value was “low polyreactivity”.

For the sequence “QVQLVESGGGLVQAGGSLRLSCAASGRTFRAYVMGWYRQAPGKERELVAAFTGDGGSTYYADSVKGRFTISRDNAKNTVYLQMNSLKPEDTAVYYCAAGYVTVYGYYEYWGQGTQVTVSS”, the “polyreactivity (PSR sort gate)” value is “high polyreactivity”.

“QVQLVESGGGLVQAGGSLRLSCAASGINFKRYAMGWYRQAPGKESELVATINRDGRTSYADSVKGRFTISRDNAKNTVYLQMNSLKQEDTAVYYFNKRGTYATPTPGNLFDYWGQGTLVTVSS”: the “polyreactivity (PSR sort gate)” value is on record as “low polyreactivity”.

Consider “QVQIVESGGGLVQAGGSLRLSCAASGRIFYGYAMGWYRQAPGKEREFVARINVSGTSTFYADSVKGRFTISRDNAKNTVYLQMNSLKPEDTAVYYCAARGLPSNYYYYVHGYIMDYWGQGTQVTVSS”, for which the “polyreactivity (PSR sort gate)” value is “low polyreactivity”.

“QVQLVESGGGLVQAGGSLRLSCAASGRIFGYNAMGWYRQAPGKERELVAAINSDGSKNYADSVKGRFTISRDNAKNTVYLQMNSLKPEDTAVYYCNKELYPVGDYEYWGQGTQVTVSS”: the “polyreactivity (PSR sort gate)” value is listed as “low polyreactivity”.

On to “QVQLVESGGGLVQAGGSLRLSCAASGIIFTQNGMGWYRQAPGKERELVAAISWSAGGTYYADSVKGRFTISRYNAKNTVLLQMNSLKPEDTAVYYCNARVFNVFREFNSWGQGTQVTVSS”, for which the “polyreactivity (PSR sort gate)” value is “low polyreactivity”.

In the case of “QVQHVQTLGGLDQAGGSLRLSFSDSGSNFGYYSIVLYRLAPGKERELVAAITGSGGGTYYADSVKGRLTISRDNAKNTVYLQMNSLKPEDTAVYYCAKDRNYRIYWGEYWGHGTQVTVSS”, the “polyreactivity (PSR sort gate)” value is recorded as “low polyreactivity”.

For the sequence “QVQLVESGGGLVQAGGSLRLSCAASGRTLRKYAMGWYRQAPGKERELVAAISSSGGNTYYADSVKGRFTISRDNAKNTVYLQMNSLKPEDTAVYYCAAGFYYPTARVGYYYWGQGTQVTVSS”, the “polyreactivity (PSR sort gate)” value is reported as “high polyreactivity”.

Turning to “QVQLVESGGGLVQAGGSLRLSCAASGFIFPYNAMGWYRQAPGKERELVAAITYRDGSTYYPDSVKGRFTISRDNANNTVYGQMNSLKPEDTAVYYCAADRYVYWDLYGYWGQGTQVTVSS”, the “polyreactivity (PSR sort gate)” value is recorded as “low polyreactivity”.

For the sequence “QVQLVESGGGLVQAAGSLRLSCAASGITSRFYVMGWYRQAPGKERESVAAISTRGTSTYYADSVKGRLPISRDNAKNTVYLQMNSLKPEDTAVYYCAAVGGYPYQYPYGSWGQGSQVTVSS”, the “polyreactivity (PSR sort gate)” value is recorded as “high polyreactivity”.

On to “QVQLVESGGGLVQAGGSLRLSCAASGSIFGYYAMGWYRQAPGKERELVAVITSGATTNYADSVKGRFTISRDNAKNTVYLQMNSLKPEDTAVYYCAARPQVKRGRYGYWGQGTQVTVSS”, for which the “polyreactivity (PSR sort gate)” value is on record as “low polyreactivity”.

For the sequence “QVQLVESGGGLVQAGGSLRLSCAASGRNSSWNAMGWYRPAPGKERELVAAISVRGGSTYADSVKGRFTISRDNAKNTVSLQMNSLTPADTAVYYCAKTYYPYRLGEGQYEYDYWGQGTQVTVSS”, the “polyreactivity (PSR sort gate)” value is reported as “low polyreactivity”.

As for “QVQLVESGGGLVQAGGSIRLSCAASGSIYKYNAMGWYRQAPGKERELVAAISSGGSTNYADSVKGRFTISRDNAKNTVYLQMNSLKPEDTAVYYCAKDRRRWYYTRDYWGQGTQVTVSS”, the “polyreactivity (PSR sort gate)” value is given as “low polyreactivity”.

For the sequence “QVQLVESGGGLVQAGGSLRLSCAASGFIYFDYAMGWDRQAPGKERELVAGISRSGDSTYYADSVKGRFTISRDNAKNTVYLQMNSLKPEDTGVFYCAVVTYRSKAHSSRNGKYYYWGQGTHVTVSS”, the “polyreactivity (PSR sort gate)” value was “low polyreactivity”.

In the case of “QVQLVESGGGLVQAGGSLRLSCAASGRTFRINAMGWYRQAPGKERELVAAINDGGDTYADSVKGRFTISRDNANNTVYLQMNSLKPEDTAVYYCAAPLGGGARWGRWWLYDSWGQGTQVTVSS”, the “polyreactivity (PSR sort gate)” value is given as “low polyreactivity”.

Take “QVQLVESGGGLVQAGGSLRLSCASSGHIFTRNAMGWYIQAPGKERELVAAISRTGGSTYYADSVKGRFTISRDNAKNTVYLQMNSLKPEDTAVYYCNARGTYTSRRGYDYWGQGTQVTVSS”: the “polyreactivity (PSR sort gate)” value is listed as “high polyreactivity”.

For “QVQLVESGGGLVQAGGSLRLSCAASGFIDAYTMGWYRQAPWKERELVAAITWSGGRTYYADSVKGRFTISRDNAKNTVYLQMNSLKPEDTAVYYCAKDVTPYSPDDDYWGQGTQVTVSS”, the “polyreactivity (PSR sort gate)” value is “low polyreactivity”.

Take “QVQLVESGGGLVQAGGSLRLSCSASGYTFSSYGMGWYRQAPGKERELVAAITGSTGTTYYADSVQGRFTISRDNAKNTVYLQMISLKPEDTAVYYCAAEYQSYPWYDYWGQGTQVTVSS”: the “polyreactivity (PSR sort gate)” value is on record as “high polyreactivity”.

“QVQLVESGGGLVQAGGSLRLSSAASGRIFYKYAMGWNRQAPGKERELVAGITGSGGSTYYADSVKGRFTISRDNAKNTVYLQMNSLKPEDTAVYYCAKRVSYDYWGQGTQVTVSS”: the “polyreactivity (PSR sort gate)” value was “low polyreactivity”.

Take “QEQLLDSGGGLVQAGGSLRLSCAASGYFSSHILSWYRQGPGKVREFVDTITDGGTTDYADSVKGRFTISRDNAKNTVYLQMNSLNPQDTAVYYCAAVATYSYHFGYWGHGTQVTVSS”: the “polyreactivity (PSR sort gate)” value is “high polyreactivity”.

Take “QVQLVESGGGLVQAGGILRLSCAPSGSTFRANAMGWYRQAPGKERELVAAITSGGSTNYADSVKGRFTISRDNAKNTVYLQRNSLKPEDTAVYYCADESYQEHSFYVYYGYDYWGQGTQVTVSS”: the “polyreactivity (PSR sort gate)” value is “low polyreactivity”.

With “QVQLVESGGGLVQAGGSLRLSCAASGLPFQEYAMGWYRQAPGKEREFVAAISASGGSTYYADSVKGRFTISRDNAKNTVYLQMNSLKPEDTAVYYCNKYGTVGYGSYGYWGQGTQVTVSS”, the “polyreactivity (PSR sort gate)” value is “high polyreactivity”.

Take “QVQLVESGGGLVQAGGSLRLSCAASGRTFGFYTMGWYRQAPGKERELVAGISRGGSTTYADSVKGRFTISRDNAKNTVYLQMNSLKPEDTAVYYCNADRSHYWLPYGVRFDYWGQGTQVTVSS”: the “polyreactivity (PSR sort gate)” value is reported as “low polyreactivity”.

On to “QVQLVESGGGLVQAGGSLRLSCAASGRIFCVNAMGWYRQAPGKERELVAAINVSGGITYYADSVKGRFTISRDNAKNTVYLQMKSLKPEDTAVYYCAAVHWTWYTYYGPDYDYWGQGTQVTVSS”, for which the “polyreactivity (PSR sort gate)” value is listed as “low polyreactivity”.

Consider “QVQLVESGGGLVQAGGSLRLSCAASGFTFYGYAMGWYRQAPGKERELVAAISTRGSRTYYADSVKGRFTISRDNAKNTVYLQMNSLKPEDTAVYYCARRRGPSYGLDYWGQGTQVTVSS”, for which the “polyreactivity (PSR sort gate)” value is recorded as “high polyreactivity”.

For “QVQLVESGGGIVQAGGSLRLSCAASGIIFSIYGMGWYRQAPGKERELVAAINSGSSTNYADSVKGRFTISRDNAKNTVYLQMNSLKREDTAVYYCNADYRYPQYYHRTWIRYDYWGQGTQVTVSS”, the “polyreactivity (PSR sort gate)” value is reported as “high polyreactivity”.

As to “QVQLVESGGGLVQAGGSLRLSCAASGSISVFYAMGWYRQAPGKEREFVAAISWRGGRTYYEDSVKARFTISRDNANNTVYLQMNSLKPEDTAVYYCAKDIVRGRSSRYDYWGQGTQVTVSS”, the “polyreactivity (PSR sort gate)” value was “high polyreactivity”.

Regarding “QVHLQESGDGLLQAVGSLRLSCAASGYISGYYYRGWYRQAPGKERELVAGIDAFGSSTNYADCVKGRFTISRDNSTNTVYLQMNSLKPEDTAVYYWAARPDGDRLFSYWGQGTQVTVSS”, the “polyreactivity (PSR sort gate)” value is reported as “low polyreactivity”.

In the case of “QVQLVESGGGLVQAGGSISLSCAASGRIFPTNDMGWYRQAPGKERELVASIDSVGSTKYADSVKGRFTISRDNAKNTVYLQMNSLKPEDTAVYYRALQVLNYDYWGQGTQVTVSS”, the “polyreactivity (PSR sort gate)” value is recorded as “low polyreactivity”.
